What was measured:
Experiment in all cases: ITC
Kap95p = target: T1, Kap95p (S. cerevisiae, UniProt Q06142 1-861)
T1 sequence (looked up): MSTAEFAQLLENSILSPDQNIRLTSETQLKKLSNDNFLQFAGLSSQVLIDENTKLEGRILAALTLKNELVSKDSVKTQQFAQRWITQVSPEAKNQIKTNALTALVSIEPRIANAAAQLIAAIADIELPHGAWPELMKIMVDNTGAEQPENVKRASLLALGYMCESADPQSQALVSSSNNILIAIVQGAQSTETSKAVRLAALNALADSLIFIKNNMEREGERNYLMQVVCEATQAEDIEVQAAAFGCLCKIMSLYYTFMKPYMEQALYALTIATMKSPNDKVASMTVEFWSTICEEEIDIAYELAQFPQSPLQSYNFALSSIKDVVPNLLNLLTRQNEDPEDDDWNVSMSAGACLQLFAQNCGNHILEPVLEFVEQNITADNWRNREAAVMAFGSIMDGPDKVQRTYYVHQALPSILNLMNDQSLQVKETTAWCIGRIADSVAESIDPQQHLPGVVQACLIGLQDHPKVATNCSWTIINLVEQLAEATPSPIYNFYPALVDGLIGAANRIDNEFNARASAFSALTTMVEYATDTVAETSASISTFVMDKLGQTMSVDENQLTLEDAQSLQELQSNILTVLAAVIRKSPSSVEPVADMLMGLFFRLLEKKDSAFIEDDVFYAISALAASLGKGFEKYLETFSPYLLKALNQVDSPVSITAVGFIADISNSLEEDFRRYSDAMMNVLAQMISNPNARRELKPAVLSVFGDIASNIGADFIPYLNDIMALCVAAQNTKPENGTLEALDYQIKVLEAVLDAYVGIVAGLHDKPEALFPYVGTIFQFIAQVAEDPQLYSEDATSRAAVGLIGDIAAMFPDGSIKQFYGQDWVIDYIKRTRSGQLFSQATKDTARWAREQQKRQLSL

Kap114p = target: T2, Kap114p (S. cerevisiae, UniProt P53067 1-1004)
T2 sequence (looked up): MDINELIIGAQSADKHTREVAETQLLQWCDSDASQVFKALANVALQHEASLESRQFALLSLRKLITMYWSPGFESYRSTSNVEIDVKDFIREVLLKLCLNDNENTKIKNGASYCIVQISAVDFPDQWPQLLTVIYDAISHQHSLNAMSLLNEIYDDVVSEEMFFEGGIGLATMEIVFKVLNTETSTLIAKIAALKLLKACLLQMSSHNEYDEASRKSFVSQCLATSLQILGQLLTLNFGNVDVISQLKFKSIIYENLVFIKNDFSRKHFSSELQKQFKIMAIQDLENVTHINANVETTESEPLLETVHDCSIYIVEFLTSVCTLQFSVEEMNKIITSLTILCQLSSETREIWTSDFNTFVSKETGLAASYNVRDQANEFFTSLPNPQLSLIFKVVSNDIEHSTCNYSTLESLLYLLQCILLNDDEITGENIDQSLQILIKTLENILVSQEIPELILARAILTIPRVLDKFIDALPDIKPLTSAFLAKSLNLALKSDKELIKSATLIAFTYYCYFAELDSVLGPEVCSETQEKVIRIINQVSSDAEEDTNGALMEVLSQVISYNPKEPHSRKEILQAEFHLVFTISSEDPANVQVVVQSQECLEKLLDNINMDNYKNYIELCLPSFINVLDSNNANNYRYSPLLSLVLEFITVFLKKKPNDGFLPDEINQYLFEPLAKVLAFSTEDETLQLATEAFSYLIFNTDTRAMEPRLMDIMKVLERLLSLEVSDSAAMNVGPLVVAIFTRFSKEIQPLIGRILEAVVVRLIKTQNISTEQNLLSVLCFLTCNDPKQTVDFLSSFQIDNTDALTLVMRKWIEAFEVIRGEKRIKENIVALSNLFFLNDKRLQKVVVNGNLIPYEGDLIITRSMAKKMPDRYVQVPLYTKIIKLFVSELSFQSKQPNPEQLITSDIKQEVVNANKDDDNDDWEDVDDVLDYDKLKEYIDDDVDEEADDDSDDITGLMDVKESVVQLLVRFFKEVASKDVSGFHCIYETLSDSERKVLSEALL

Kap114p (Δ899-956) = target: T3, Kap114p (Δ899-956) (S. cerevisiae, UniProt P53067 1-1004, Δ899-956)
T3 sequence (looked up): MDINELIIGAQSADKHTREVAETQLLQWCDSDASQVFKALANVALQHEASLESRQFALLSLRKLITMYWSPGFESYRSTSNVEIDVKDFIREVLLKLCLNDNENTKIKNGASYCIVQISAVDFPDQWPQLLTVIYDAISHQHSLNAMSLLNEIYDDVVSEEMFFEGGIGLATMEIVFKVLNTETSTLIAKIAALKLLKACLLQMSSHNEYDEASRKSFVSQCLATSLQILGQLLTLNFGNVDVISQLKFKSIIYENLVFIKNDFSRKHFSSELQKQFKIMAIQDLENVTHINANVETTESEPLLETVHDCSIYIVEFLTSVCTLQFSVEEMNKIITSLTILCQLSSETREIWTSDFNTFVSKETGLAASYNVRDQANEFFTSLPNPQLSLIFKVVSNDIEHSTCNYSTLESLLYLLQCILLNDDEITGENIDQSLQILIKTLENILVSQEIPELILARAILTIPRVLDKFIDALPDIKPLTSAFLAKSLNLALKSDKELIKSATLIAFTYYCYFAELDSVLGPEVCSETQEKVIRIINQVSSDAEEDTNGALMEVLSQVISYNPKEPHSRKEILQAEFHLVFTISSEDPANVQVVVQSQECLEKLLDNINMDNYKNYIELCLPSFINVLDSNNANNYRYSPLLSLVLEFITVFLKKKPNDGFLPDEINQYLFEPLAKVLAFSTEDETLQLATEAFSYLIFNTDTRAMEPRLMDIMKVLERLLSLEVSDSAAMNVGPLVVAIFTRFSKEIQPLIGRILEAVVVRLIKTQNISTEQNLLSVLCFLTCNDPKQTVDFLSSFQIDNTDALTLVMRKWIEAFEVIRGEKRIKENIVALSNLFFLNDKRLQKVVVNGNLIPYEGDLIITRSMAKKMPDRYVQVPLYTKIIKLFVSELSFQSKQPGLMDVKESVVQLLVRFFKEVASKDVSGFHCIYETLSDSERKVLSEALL

Kd (Kap95p): ~10 µM | Kd (Kap114p): 0.006 µM | binding result (Kap114p (Δ899-956)): binds
B1: yTBP (61-240) (domain or fragment, S. cerevisiae, UniProt P13393 61-240, looked up)
chain: SGIVPTLQNIVATVTLGCRLDLKTVALHARNAEYNPKRFAAVIMRIREPKTTALIFASGKMVVTGAKSEDDSKLASRKYARIIQKIGFAAKFTDFKIQNIVGSCDVKFPIRLEGLAFSHGTFSSYEPELFPGLIYRMVKPKIVLLIFVSGKIVLTGAKQREEIYQAFEAIYPVLSEFRKM

Source: publication doi:10.1101/411223 (bioRxiv, 2018)
